Reference: paper PMC4047826

Target: Dead streptavidin subunit with a polyaspartate insertion in the 3/4 loop (Dd) (Streptomyces avidinii) (UniProt P22629)
Assay: mixed refold, anion-exchange chromatography and SDS-PAGE without boiling; subunits refolded together from inclusion bodies into PBS; tetramers resolved on Mono-Q (20 mM Tris-HCl pH 8.0, 0-1 M NaCl gradient); peaks run on SDS-PAGE unboiled (tetramer) or boiled (subunit composition), Coomassie

- stoichiometry N: 4
Substance: Dead streptavidin subunit with a polyaspartate insertion in the 3/4 loop (Dd) (from UniProt P22629 37-163) (domain or fragment)
